Experimental data reported in patent publication US7402575B2, “Methods of treating inflammation” (priority 2003, dated 2008).

Molecular target: T1, lysozyme c (Lzm-S) (Canis lupus familiaris, UniProt P81709)
T1 construct: Lzm-S was purified in a manner described by Grobler et al (14); from tissue
T1 sequence (P81709 1-130): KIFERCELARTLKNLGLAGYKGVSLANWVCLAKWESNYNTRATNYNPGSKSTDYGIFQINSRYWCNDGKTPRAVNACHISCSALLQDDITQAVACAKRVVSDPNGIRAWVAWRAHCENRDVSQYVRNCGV
Experiment: Effect of enzyme treatment (of Lzm-S or of the trabeculae) on Lzm-S's depressant effect in right ventricular trabecular preparation
Type: cell-based, dog
Experimental: In subsequent experiments, the objective was to determine whether pretreatment of Lzm-S with the proteolytic enzyme proteinase-K reduced the extent to which myocardial depression developed in the in vitro preparation (7). Proteinase-K (attached to beaded agarose; Sigma Chemical, St Louis, Mo.) was added to the pure Lzm-S preparation. The effects of proteinase-K treated and nontreated Lzm-S on isometric tension were compared between the samples. Since proteinase-K is a non-specific proteolytic enzyme, a specific competitive inhibitor of lysozyme, TAC (chitotriose) was subsequently examined to determine whether it prevented the depression in isometric tension observed in the in vitro preparation (16,17).
Regardless of the type of carbohydrate structure to which Lzm-S may bind, it is possible to deglycosylate the carbohydrate structure by means of exoglycosidases in which a specific sugar residue is removed from the terminal end of the carbohydrate tree (47). […] In group 2, the trabeculae were initially bathed in sialidase (60 μl; 5 U/ml) for two hours to remove any N-acetylneuramic acid (NeuNAc) residues, after which the effect of Lzm-S was determined (all kits from Prozyme, San Leandro, Calif.; kit GE 23; Sialidase A). […]

B1: Proteinase K: nonspecific proteolytic enzyme attached to beaded agarose (protein, UniProt P06873 106-384, looked up)
Proteinase K: AAQTNAPWGLARISSTSPGTSTYYYDESAGQGSCVYVIDTGIEASHPEFEGRAQMVKTYYYSSRDGNGHGTHCAGTVGSRTYGVAKKTQLFGVKVLDDNGSGQYSTIIAGMDFVASDKNNRNCPKGVVASLSLGGGYSSSVNSAAARLQSSGVMVAVAAGNNNADARNYSPASEPSVCTVGASDRYDRRSSFSNYGSVLDIFGPGTSILSTWIGGSTRSISGTSMATPHVAGLAAYLMTLGKTTAASACRYIADTANKGDLSNIPFGTVNLLAYNNYQA
modifications: attached to agarose beads
For B1, the “Effect of enzyme treatment on Lzm-S's depressant activity” value was “reduction in depressant activity”.
